Measurements taken from the supplement of paper PMC9112550, “Optimization of the antimicrobial peptide Bac7 by deep mutational scanning” (BMC Biology, 2022).

Tested on: Escherichia coli TOP10
Assay: shrunken log2 fold change of peptide-encoding DNA abundance (4.5 h post-induction vs induction); higher = less antimicrobial activity (less host growth inhibition)
Conditions: time post-induction: 4.5 h; library: site-saturation at positions 5, 18, 19, 20
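Note: peptides expressed intracellularly from a pBAD plasmid library in pooled LB shake-flask culture, induced with 0.3% L-arabinose, DNA abundance read by NGS, three biological replicates, DESeq2 with apeglm shrinkage.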

Sequence	shrunken log2 fold change
RRIRPRPPRLPRPRPRPDIIPRP	0.00942
RRIRKRPPRLPRPRPRPSDTPRP	0.322
RRIRERPPRLPRPRPRPCMNPRP	-0.341
RRIRVRPPRLPRPRPRPWMVPRP	-0.208
RRIRERPPRLPRPRPRPPWLPRP	0.488
RRIRKRPPRLPRPRPRPACTPRP	0.219
RRIRIRPPRLPRPRPRPNNCPRP	-0.0753
RRIRNRPPRLPRPRPRPGHPPRP	-0.0813
RRIRPRPPRLPRPRPRPMRTPRP	0.357
RRIRMRPPRLPRPRPRPKRDPRP	1.15
RRIRCRPPRLPRPRPRPCIMPRP	-0.336
RRIRCRPPRLPRPRPRPKIPPRP	-0.284
RRIRTRPPRLPRPRPRPRWNPRP	0.969
RRIRLRPPRLPRPRPRPGQNPRP	-0.18
RRIRYRPPRLPRPRPRPRDEPRP	0.047
RRIRLRPPRLPRPRPRPLGHPRP	-0.0858
RRIRFRPPRLPRPRPRPSLWPRP	0.29
RRIRLRPPRLPRPRPRPPMNPRP	-0.114
RRIRQRPPRLPRPRPRPFDMPRP	-0.123
RRIRFRPPRLPRPRPRPDSHPRP	-0.495
RRIRHRPPRLPRPRPRPKDAPRP	-0.112
RRIRKRPPRLPRPRPRPNRGPRP	0.0385
RRIRKRPPRLPRPRPRPFDFPRP	0.0615
RRIRTRPPRLPRPRPRPIVSPRP	-0.0631
RRIRWRPPRLPRPRPRPPNSPRP	0.39

Sequence	shrunken log2 fold change
RRIRHRPPRLPRPRPRPTIQPRP	-0.169
RRIRFRPPRLPRPRPRPKMEPRP	-0.028
RRIRYRPPRLPRPRPRPVNFPRP	0.00408
RRIRCRPPRLPRPRPRPENNPRP	-0.303
RRIRWRPPRLPRPRPRPTLSPRP	0.3
RRIRVRPPRLPRPRPRPFNWPRP	-0.498
RRIRARPPRLPRPRPRPTSFPRP	0.237
RRIRCRPPRLPRPRPRPVDYPRP	-0.258
RRIRLRPPRLPRPRPRPVAPPRP	0.474
RRIRNRPPRLPRPRPRPYPLPRP	-0.042
RRIRRRPPRLPRPRPRPYEVPRP	-0.0692
RRIRVRPPRLPRPRPRPIHPPRP	0.0943
RRIRMRPPRLPRPRPRPRVGPRP	1.02
RRIRKRPPRLPRPRPRPVQPPRP	0.0838
RRIRFRPPRLPRPRPRPQIFPRP	-0.172
RRIRTRPPRLPRPRPRPKPDPRP	0.214
RRIRLRPPRLPRPRPRPQACPRP	0.00768
RRIRMRPPRLPRPRPRPFNEPRP	-0.488
RRIRERPPRLPRPRPRPHLPPRP	-0.136
RRIRIRPPRLPRPRPRPFFRPRP	-0.636
RRIRDRPPRLPRPRPRPQFAPRP	-0.0178
RRIRNRPPRLPRPRPRPSAAPRP	0.338
RRIRLRPPRLPRPRPRPNGRPRP	-0.192
RRIRFRPPRLPRPRPRPRREPRP	0.177
RRIRCRPPRLPRPRPRPWWTPRP	-0.383

Sequence	shrunken log2 fold change
RRIRIRPPRLPRPRPRPREQPRP	0.198
RRIRSRPPRLPRPRPRPRIIPRP	-0.712
RRIRTRPPRLPRPRPRPEMEPRP	0.0702
RRIRARPPRLPRPRPRPSGLPRP	0.0354
RRIRHRPPRLPRPRPRPPQMPRP	0.149
RRIRDRPPRLPRPRPRPNGEPRP	0.0768
RRIRGRPPRLPRPRPRPFVKPRP	-0.419
RRIRKRPPRLPRPRPRPKQDPRP	0.119
RRIRCRPPRLPRPRPRPMRIPRP	0.497
RRIRHRPPRLPRPRPRPRWTPRP	0.0902
RRIRVRPPRLPRPRPRPSMEPRP	-0.159
RRIRPRPPRLPRPRPRPYSKPRP	-0.868
RRIRGRPPRLPRPRPRPKHQPRP	0.441
RRIRTRPPRLPRPRPRPYEQPRP	-0.0291
RRIRERPPRLPRPRPRPRFKPRP	0.00602
RRIRMRPPRLPRPRPRPPYWPRP	0.37
RRIRWRPPRLPRPRPRPHYKPRP	-0.631
RRIRCRPPRLPRPRPRPGVDPRP	-0.0475
RRIRARPPRLPRPRPRPMFEPRP	0.3
RRIRLRPPRLPRPRPRPTRAPRP	0.498
RRIRERPPRLPRPRPRPSSKPRP	-0.639
RRIRCRPPRLPRPRPRPAWAPRP	0.108
RRIRLRPPRLPRPRPRPEQLPRP	0.131
RRIRGRPPRLPRPRPRPGMMPRP	-0.0297
RRIRARPPRLPRPRPRPRRSPRP	0.743

Sequence	shrunken log2 fold change
RRIRMRPPRLPRPRPRPGVLPRP	0.135
RRIRTRPPRLPRPRPRPFDKPRP	-0.154
RRIRNRPPRLPRPRPRPAMGPRP	0.288
RRIRSRPPRLPRPRPRPLGLPRP	0.204
RRIRGRPPRLPRPRPRPTVNPRP	0.597
RRIRVRPPRLPRPRPRPMVFPRP	0.0611
RRIRHRPPRLPRPRPRPTSWPRP	0.091
RRIRQRPPRLPRPRPRPQARPRP	-0.0121
RRIRHRPPRLPRPRPRPAIKPRP	0.00883
RRIRPRPPRLPRPRPRPCVEPRP	0.021
RRIRIRPPRLPRPRPRPPIIPRP	-0.0124
RRIRKRPPRLPRPRPRPPPMPRP	0.826
RRIRFRPPRLPRPRPRPPEWPRP	0.139
RRIRFRPPRLPRPRPRPRDCPRP	2.96
RRIRHRPPRLPRPRPRPILCPRP	-0.182
RRIRMRPPRLPRPRPRPVHSPRP	0.0125
RRIRQRPPRLPRPRPRPYSWPRP	0.0415
RRIRERPPRLPRPRPRPCRRPRP	0.0646
RRIRMRPPRLPRPRPRPCVYPRP	-0.195
RRIRPRPPRLPRPRPRPWGAPRP	0.738
RRIRPRPPRLPRPRPRPINPPRP	-0.714
RRIRQRPPRLPRPRPRPWNPPRP	-0.0759
RRIRARPPRLPRPRPRPANSPRP	0.329
RRIRYRPPRLPRPRPRPEASPRP	-0.0105
RRIRKRPPRLPRPRPRPPCAPRP	0.804

Sequence	shrunken log2 fold change
RRIRMRPPRLPRPRPRPSASPRP	1.7
RRIRKRPPRLPRPRPRPWTNPRP	-0.0144
RRIRTRPPRLPRPRPRPKNNPRP	-0.483
RRIRIRPPRLPRPRPRPSRKPRP	-0.148
RRIRTRPPRLPRPRPRPSMNPRP	-0.28
RRIRSRPPRLPRPRPRPGTIPRP	-0.263
RRIRKRPPRLPRPRPRPVRRPRP	0.377
RRIRCRPPRLPRPRPRPRNVPRP	-0.156
RRIRWRPPRLPRPRPRPHNNPRP	-0.749
RRIRQRPPRLPRPRPRPKWRPRP	0.0839
RRIRFRPPRLPRPRPRPGGSPRP	-0.0392
RRIRVRPPRLPRPRPRPKLHPRP	-0.237
RRIRNRPPRLPRPRPRPPLMPRP	-0.0745
RRIRFRPPRLPRPRPRPIWNPRP	-0.147
RRIRSRPPRLPRPRPRPDWHPRP	-0.195
RRIRQRPPRLPRPRPRPFPVPRP	0.0568
RRIRPRPPRLPRPRPRPTCIPRP	-0.146
RRIRSRPPRLPRPRPRPYQHPRP	-0.934
RRIRWRPPRLPRPRPRPVHFPRP	-0.0407
RRIRGRPPRLPRPRPRPVPFPRP	0.289
RRIRQRPPRLPRPRPRPPANPRP	0.409
RRIRERPPRLPRPRPRPFSEPRP	0.0188
RRIRTRPPRLPRPRPRPVHLPRP	-0.123
RRIRDRPPRLPRPRPRPAEDPRP	-0.017
RRIRTRPPRLPRPRPRPPDAPRP	0.232

Sequence	shrunken log2 fold change
RRIRDRPPRLPRPRPRPNSKPRP	-0.506
RRIRFRPPRLPRPRPRPQWMPRP	-0.414
RRIRARPPRLPRPRPRPCRIPRP	-0.0344
RRIRYRPPRLPRPRPRPAVEPRP	0.161
RRIRPRPPRLPRPRPRPPCHPRP	0.0684
RRIRSRPPRLPRPRPRPKEFPRP	-0.216
RRIRWRPPRLPRPRPRPDHEPRP	-0.0396
RRIRQRPPRLPRPRPRPRENPRP	0.0469
RRIRVRPPRLPRPRPRPTHSPRP	0.156
RRIRVRPPRLPRPRPRPVALPRP	0.0693
RRIRTRPPRLPRPRPRPLSKPRP	-0.22
RRIRERPPRLPRPRPRPLPGPRP	-0.165
RRIRPRPPRLPRPRPRPARIPRP	0.14
RRIRKRPPRLPRPRPRPVKYPRP	0.221
RRIRCRPPRLPRPRPRPERFPRP	0.00138
RRIRWRPPRLPRPRPRPWNAPRP	-0.176
RRIRLRPPRLPRPRPRPSQIPRP	0.0199
RRIRLRPPRLPRPRPRPESCPRP	0.0209
RRIRGRPPRLPRPRPRPRAFPRP	0.793
RRIRPRPPRLPRPRPRPYDKPRP	-0.512
RRIRFRPPRLPRPRPRPWDSPRP	-0.21
RRIRNRPPRLPRPRPRPFRKPRP	-0.0467
RRIRIRPPRLPRPRPRPGDDPRP	0.136
RRIRVRPPRLPRPRPRPEDVPRP	0.0203
RRIRIRPPRLPRPRPRPTCKPRP	-0.466
